These are literature values, as cited in paper PMC6515277.

Read-outs that look alike come from different tables or passages of the source.

Data set [1] deals with merlin CTD CTD (Homo sapiens) (UniProt P35240). Put plainly: ITC.
Data set [2] shares this target. Kind of data set: ITC. The source holds these as a separate data set. For orientation: ITC needs no label: the signal is the heat of the interaction.

Take merlin FERM FERM (from UniProt P35240): the Kd in data set [1] and in data set [2] was 4 µM each time.
